B1: CSPα: cysteine string protein alpha, DnaJ domain-containing protein chaperone, myc-tagged, expressed in CAD cells (protein, UniProt Q9H3Z4 1-198, looked up)
DnaJ homolog subfamily C …: MADQRQRSLSTSGESLYHVLGLDKNATSDDIKKSYRKLALKYHPDKNPDNPEAADKFKEINNAHAILTDATKRNIYDKYGSLGLYVAEQFGEENVNTYFVLSSWWAKALFVFCGLLTCCYCCCCLCCCFNCCCGKCKPKAPEGEETEFYVSPEDLEAQLQSDEREATDTPIVIQPASATETTQLTADSHPSYHTDGFN
modifications: myc tag
notes: cysteine string protein alpha, DnaJ domain-containing protein chaperone, myc-tagged, expressed in CAD cells

Tests used:
Format in all cases: cell-based
CAD cells [1] = assay: EV secretion of GFP-tagged 72Q huntingtin^exon1 from CAD cells with or without β amyloid peptide; conditions: 12.5 μg/ml β amyloid peptide, added 6 hours after transfection, media collected at 48 hours
Procedure: CAD cells were transiently transfected with GFP-tagged 72Q huntingtin^exon1 and a vector control, CSPα, DnaJB2long, or DnaJB6long. 6 hours after transfection, the cells were treated with 12.5 μg/ml β amyloid peptide (Aβ) or left untreated. 48 hours after transfection, the media was collected, EVs were prepared, and EV secretion of GFP-tagged 72Q huntingtin^exon1 was measured.

CAD cells [2] = assay: Nanoscale flow cytometry of EVs secreted from CAD cells expressing GFP-72Q huntingtin^exon1
Procedure: (§1) Cell lines were transfected with the molecular chaperone CSPα and a GFP-tagged protein. CAD cells (catecholaminergic derived CNS cells) were the cell line utilized. Other cell lines, including patient-derived cell lines, may also be utilized. cDNAs encoding for myc-tagged CSPα or vector alone and GFP-72Q huntingtin^exon1 were transiently transfected with Lipofectamine™ 3000 (Invitrogen) in Opti-MEM™ medium. Media was changed to serum-free media 6 hours post-transfection. Media was collected 48 hours after transfection, spun at 300×g for 5 min to remove cell debris and evaluated without further processing by nanocyte tracking analysis, nanoscale flow cytometry analysis and dot blot analysis. For western blot analysis, EVs were isolated from the unfractionated media by exoquick precipitation solution (SBI) and solubilized in sample buffer. Following media collection, cell viability was determined using an XTT assay (New England Biolabs). When resveratrol was used, it was added to the serum-free media 6 hours post-transfection at the time of the media change.
For NTA and nanoscale flow cytometry analysis, all samples were diluted 25 fold using 0.2× phosphate buffered saline that had been filtered twice through 0.2 μm filter. For NTA analysis, all samples were analyzed using the Nanosight LM10 (405 nm laser, 60 mW, software version 3.00064). Samples were analyzed in triplicate for 60 seconds per replicate with a count range of 20-100 particles per frame. A variety of NIST (Thermo Scientific 3000 Series) standards were analyzed, each the day prior to sample analysis. The system was cleaned between each sample and checked for any sample carryover using the PBS diluent. NTA measures EVs within a size range from about 30 nm to about 1,000 nm.
Samples were similarly prepared for nanoscale flow cytometry as for NTA. All samples were analyzed using the Apogee A50 flow cytometry platform. Light scatter was provided using the 405 nm laser (75 mW); GFP signal was generated using the 488 nm laser (50 mW, 535/35) and far red signal was generated using the 630 nm laser (75 mW, 680/35). All samples were analyzed for 60 seconds. Optimization was performed to insure single EVs were being analyzed and single events were triggered by light scatter only. The system was cleaned each day prior to sample analysis and a variety of silica and polystyrene standards (Apogee 1493 standards) processed for instrument set up and QC. The silica standards were used to assess the relative size range of EVs. Nanoscale flow cytometry measures EVs within a size range from about 100 nm to about 1,300 nm. […]

CAD cells [3] = assay: Cell viability after media collection (XTT assay); conditions: various levels of CSPα expression
Procedure: as §1

[4] = cells express the protein, p<0.0001
[5] = presence of CSPα, no resveratrol

Molecule	secretion of GFP-tagged 72Q huntingtin^exon1 by CSPα, DnaJB2long and DnaJB6long (CAD cells [1])	Secretion of EVs containing GFP-tagged 72Q huntingtin^exon1 (CAD cells [2]; [4])	percentage of EVs containing GFP-72Q huntingtin^exon1 within the total EV pool (CAD cells [2]; [4])	increase of export of EVs containing GFP-72Q huntingtin^exon1 within the 180-240 nm subpopulation (CAD cells [2]; p<0.0001)	EVs containing GFP cargo within the 180-240 nm subpopulation (CAD cells [2]; [5])	EVs containing GFP cargo within the <180 nm subpopulation (CAD cells [2]; [5])	EVs containing GFP cargo within the >240 nm subpopulation (CAD cells [2]; [5])	180-240 nm EV export of GFP-72Q huntingtin^exon1 as a function of cellular CSPα expression (CAD cells [2]; various levels of CSPα, parallel western blot)	Cell viability after media collection (CAD cells [3])
β amyloid peptide: β amyloid peptide (Aβ, AggreSure™ obtained from AnaSpec)	increased the secretion of GFP-tagged 72Q huntingtin^exon1								
B1		dramatically increased	dramatically increased	> 400%	1%	0.06%	1.6%	correlates with increases in 180-240 nm EV export	not influenced

Reference: patent US20220241202A1, “METHOD AND VEHICLE FOR DELIVERING AGENTS ACROSS THE BLOOD-BRAIN BARRIER” (priority 2019, published 2022)
